To fix the notation:
B1: Basigin (Homo sapiens), P35613-2 (parent)
chain: MAAALFVLLGFALLGTHGASGAAGTVFTTVEDLGSKILLTCSLNDSATEVTGHRWLKGGVVLKEDALPGQKTEFKVDSDDQWGEYSCVFLPEPMGTANIQLHGPPRVKAVKSSEHINEGETAMLVCKSESVPPVTDWAWYKITDSEDKALMNGSESRFFVSSSQGRSELHIENLNMEADPGQYRCNGTSSKGSDQAIITLRVRSHLAALWPFLGIVAEVLVLVTIIFIYEKRRKPEDVLDDDDAGSAPLKSSGQHQNDKGKNVRQRNSS

The variants in this assay derive from B1. As to conditions: with rh5_plaf7 RH5, Q8IFM5.
Sequence of rh5_plaf7 RH5, Q8IFM5 (Q8IFM5 whole entry): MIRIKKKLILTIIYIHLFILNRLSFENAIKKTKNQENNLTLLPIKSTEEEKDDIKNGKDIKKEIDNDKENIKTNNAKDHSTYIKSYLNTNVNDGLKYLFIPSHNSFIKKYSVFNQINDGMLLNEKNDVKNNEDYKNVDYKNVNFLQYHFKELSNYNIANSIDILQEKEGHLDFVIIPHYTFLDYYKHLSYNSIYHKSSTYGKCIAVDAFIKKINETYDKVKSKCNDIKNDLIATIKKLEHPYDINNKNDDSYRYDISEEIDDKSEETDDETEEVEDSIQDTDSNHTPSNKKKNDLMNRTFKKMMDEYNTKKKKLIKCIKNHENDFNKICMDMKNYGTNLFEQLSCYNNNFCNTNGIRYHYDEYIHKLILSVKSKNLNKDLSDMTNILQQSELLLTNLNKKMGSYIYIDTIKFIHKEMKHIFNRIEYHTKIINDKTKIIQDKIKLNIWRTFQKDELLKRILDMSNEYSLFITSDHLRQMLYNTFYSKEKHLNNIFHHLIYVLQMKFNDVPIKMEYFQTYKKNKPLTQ
With F27L, the “effect of a mutation on the interaction” value is given as “decreasing interaction strength”.
For the variant K75E, the “effect of a mutation on the interaction” value is “with no effect”.
With Q100K, the “effect of a mutation on the interaction” value was “decreasing interaction strength”.
On to D32E, for which the “effect of a mutation on the interaction” value is “with no effect”.

The values above are taken from IntAct's records for PubMed 24297912.
